Reference: the supplement of paper PMC10065799, “High-throughput profiling of sequence recognition by tyrosine kinases and SH2 domains using bacterial peptide display” (eLife, 2023)

What follows are sequences tested against c-Src SH2 (assay: SH2 binding enrichment of the phosphorylated peptide, bacterial display (enrichment ratio); higher = better substrate or ligand; peptides without Tyr show the background).
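Throughout, for SH2 binding enrichment of the phosphorylated peptide, bacterial display: peptide library displayed on the E. coli surface as eCPX fusions, selected cells deep-sequenced, score is each peptide's frequency after selection divided by its frequency in the input.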
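Throughout, for phosphorylation enrichment, bacterial display: 11-residue human phosphosite peptides and single-mutation variants displayed on the E. coli surface, counted by deep sequencing, each peptide's frequency after selection divided by its frequency in the unselected input library; frequency after pTyr selection over input frequency; kinase dosed for 20-30% of maximal phosphorylation in three min.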

Row | Sequence | SH2 binding enrichment
1 | FVSIVYSDSGE [TSC2_Y1650_N1651S] | 0.83
2 | PVQAAYQKVVP [HBB_Y131_A136P] | 1
3 | VARAVYQAVLS [SMG1_Y549_H546R] | 1
4 | VWALTYCDLHK [KCNH2_Y827_R823W] | 0.655
5 | QEIATHRRLLE [KRT14_Y415_Y415H] | 0.543
6 | YQQLFYLLQTN [IQGAP2_Y890] | 1.11
7 | TSSSRYFDEPV [ARFGAP3_Y356_S355R] | 0.475
8 | VERIHYIGQNE [HMOX2_Y140] | 0.437
9 | ESDGAYIHRMQ [CCDC137_Y125] | 0.541
10 | KILAKYSLETS [NAMPT_Y175_L176S] | 0.388
11 | ESKAGYRAPRS [CLDN7_Y195_V197A] | 0.542
12 | GQRDLYSGLNE [CD3E_Y199_Q204E] | 0.724
13 | GGGFGYQKTRK [DDX18_Y643_K647R] | 0.536
14 | SLIDMYSEVLD [OPA1_Y268] | 0.778
15 | ADRAAYLQNLN [MYH1_Y389_K386R] | 0.403
16 | FSNKLHFQLEQ [PDPR_Y109_Y109H_YF] | 0.482

The sequences below were run against Grb2 SH2 (UniProt P62993) in the same assay as above.
Grb2 SH2, sequence (P62993 whole entry, looked up): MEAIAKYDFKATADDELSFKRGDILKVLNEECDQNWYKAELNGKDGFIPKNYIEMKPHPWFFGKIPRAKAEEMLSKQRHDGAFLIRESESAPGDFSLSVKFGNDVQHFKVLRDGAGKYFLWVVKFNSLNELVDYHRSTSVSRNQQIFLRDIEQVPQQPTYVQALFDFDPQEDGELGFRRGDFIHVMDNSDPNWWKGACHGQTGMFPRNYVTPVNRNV

Row | Sequence | SH2 binding enrichment
17 | FVSIVYSDSGE [TSC2_Y1650_N1651S] | 0.928
18 | PVQAAYQKVVP [HBB_Y131_A136P] | 0.881
19 | VARAVYQAVLS [SMG1_Y549_H546R] | 0.708
20 | VWALTYCDLHK [KCNH2_Y827_R823W] | 0.884
21 | QEIATHRRLLE [KRT14_Y415_Y415H] | 0.978
22 | YQQLFYLLQTN [IQGAP2_Y890] | 1.49
23 | TSSSRYFDEPV [ARFGAP3_Y356_S355R] | 0.725
24 | VERIHYIGQNE [HMOX2_Y140] | 1.08
25 | ESDGAYIHRMQ [CCDC137_Y125] | 0.857
26 | KILAKYSLETS [NAMPT_Y175_L176S] | 0.871
27 | ESKAGYRAPRS [CLDN7_Y195_V197A] | 1.04
28 | GQRDLYSGLNE [CD3E_Y199_Q204E] | 0.878
29 | GGGFGYQKTRK [DDX18_Y643_K647R] | 0.976
30 | SLIDMYSEVLD [OPA1_Y268] | 0.839
31 | ADRAAYLQNLN [MYH1_Y389_K386R] | 0.719
32 | FSNKLHFQLEQ [PDPR_Y109_Y109H_YF] | 0.917

What follows are sequences tested against SHP2-C SH2 in the same assay as above.

Row | Sequence | SH2 binding enrichment
33 | FVSIVYSDSGE [TSC2_Y1650_N1651S] | 0.967
34 | PVQAAYQKVVP [HBB_Y131_A136P] | 0.751
35 | VARAVYQAVLS [SMG1_Y549_H546R] | 0.834
36 | VWALTYCDLHK [KCNH2_Y827_R823W] | 0.791
37 | QEIATHRRLLE [KRT14_Y415_Y415H] | 0.722
38 | YQQLFYLLQTN [IQGAP2_Y890] | 1.83
39 | TSSSRYFDEPV [ARFGAP3_Y356_S355R] | 0.745
40 | VERIHYIGQNE [HMOX2_Y140] | 0.972
41 | ESDGAYIHRMQ [CCDC137_Y125] | 0.656
42 | KILAKYSLETS [NAMPT_Y175_L176S] | 0.529
43 | ESKAGYRAPRS [CLDN7_Y195_V197A] | 0.74
44 | GQRDLYSGLNE [CD3E_Y199_Q204E] | 0.64
45 | GGGFGYQKTRK [DDX18_Y643_K647R] | 0.461
46 | SLIDMYSEVLD [OPA1_Y268] | 0.924
47 | ADRAAYLQNLN [MYH1_Y389_K386R] | 0.552
48 | FSNKLHFQLEQ [PDPR_Y109_Y109H_YF] | 0.938

What follows are sequences tested against EPHB1 (UniProt P54762) (assay: phosphorylation enrichment, bacterial display (enrichment ratio); higher = better substrate or ligand; peptides without Tyr show the background).
EPHB1, sequence (P54762 whole entry, looked up): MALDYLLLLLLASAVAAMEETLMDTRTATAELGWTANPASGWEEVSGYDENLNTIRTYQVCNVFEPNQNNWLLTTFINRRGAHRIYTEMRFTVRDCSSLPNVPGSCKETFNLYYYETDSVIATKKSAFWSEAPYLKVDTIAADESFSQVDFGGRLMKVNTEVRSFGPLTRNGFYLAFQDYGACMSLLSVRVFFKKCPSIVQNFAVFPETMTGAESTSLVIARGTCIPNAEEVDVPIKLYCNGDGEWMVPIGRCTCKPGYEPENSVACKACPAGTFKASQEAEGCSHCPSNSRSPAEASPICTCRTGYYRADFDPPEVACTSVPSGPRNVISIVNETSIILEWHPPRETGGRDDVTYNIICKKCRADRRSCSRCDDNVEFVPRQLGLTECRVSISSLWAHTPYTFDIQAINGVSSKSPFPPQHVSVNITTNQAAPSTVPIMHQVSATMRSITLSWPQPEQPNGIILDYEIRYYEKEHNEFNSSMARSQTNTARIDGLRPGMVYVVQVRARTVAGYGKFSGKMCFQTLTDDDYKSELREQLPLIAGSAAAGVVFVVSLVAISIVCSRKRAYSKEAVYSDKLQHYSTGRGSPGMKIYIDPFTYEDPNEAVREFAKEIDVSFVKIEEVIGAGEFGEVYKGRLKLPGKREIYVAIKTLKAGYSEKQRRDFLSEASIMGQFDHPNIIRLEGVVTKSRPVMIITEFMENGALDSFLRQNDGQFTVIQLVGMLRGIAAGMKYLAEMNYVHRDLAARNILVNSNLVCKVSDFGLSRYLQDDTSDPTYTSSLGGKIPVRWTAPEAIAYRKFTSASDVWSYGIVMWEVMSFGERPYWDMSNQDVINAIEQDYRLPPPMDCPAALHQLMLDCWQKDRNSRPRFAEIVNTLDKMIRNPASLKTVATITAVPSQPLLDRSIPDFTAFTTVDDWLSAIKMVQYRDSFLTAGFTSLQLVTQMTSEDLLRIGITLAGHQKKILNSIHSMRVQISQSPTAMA

Row | Sequence | phosphorylation enrichment
49 | FVSIVYSDSGE [TSC2_Y1650_N1651S] | 0.439
50 | PVQAAYQKVVP [HBB_Y131_A136P] | 0.787
51 | VARAVYQAVLS [SMG1_Y549_H546R] | 0.526
52 | VWALTYCDLHK [KCNH2_Y827_R823W] | 1.75
53 | QEIATHRRLLE [KRT14_Y415_Y415H] | 0.403
54 | YQQLFYLLQTN [IQGAP2_Y890] | 1.92
55 | TSSSRYFDEPV [ARFGAP3_Y356_S355R] | 0.508
56 | VERIHYIGQNE [HMOX2_Y140] | 0.351
57 | ESDGAYIHRMQ [CCDC137_Y125] | 0.408
58 | KILAKYSLETS [NAMPT_Y175_L176S] | 0.335
59 | ESKAGYRAPRS [CLDN7_Y195_V197A] | 0.35
60 | GQRDLYSGLNE [CD3E_Y199_Q204E] | 1.12
61 | GGGFGYQKTRK [DDX18_Y643_K647R] | 0.629
62 | SLIDMYSEVLD [OPA1_Y268] | 0.621
63 | ADRAAYLQNLN [MYH1_Y389_K386R] | 0.563
64 | FSNKLHFQLEQ [PDPR_Y109_Y109H_YF] | 0.473

These sequences were tested against FGFR1 (UniProt P11362) in the same assay as above.
FGFR1, sequence (P11362 whole entry, looked up): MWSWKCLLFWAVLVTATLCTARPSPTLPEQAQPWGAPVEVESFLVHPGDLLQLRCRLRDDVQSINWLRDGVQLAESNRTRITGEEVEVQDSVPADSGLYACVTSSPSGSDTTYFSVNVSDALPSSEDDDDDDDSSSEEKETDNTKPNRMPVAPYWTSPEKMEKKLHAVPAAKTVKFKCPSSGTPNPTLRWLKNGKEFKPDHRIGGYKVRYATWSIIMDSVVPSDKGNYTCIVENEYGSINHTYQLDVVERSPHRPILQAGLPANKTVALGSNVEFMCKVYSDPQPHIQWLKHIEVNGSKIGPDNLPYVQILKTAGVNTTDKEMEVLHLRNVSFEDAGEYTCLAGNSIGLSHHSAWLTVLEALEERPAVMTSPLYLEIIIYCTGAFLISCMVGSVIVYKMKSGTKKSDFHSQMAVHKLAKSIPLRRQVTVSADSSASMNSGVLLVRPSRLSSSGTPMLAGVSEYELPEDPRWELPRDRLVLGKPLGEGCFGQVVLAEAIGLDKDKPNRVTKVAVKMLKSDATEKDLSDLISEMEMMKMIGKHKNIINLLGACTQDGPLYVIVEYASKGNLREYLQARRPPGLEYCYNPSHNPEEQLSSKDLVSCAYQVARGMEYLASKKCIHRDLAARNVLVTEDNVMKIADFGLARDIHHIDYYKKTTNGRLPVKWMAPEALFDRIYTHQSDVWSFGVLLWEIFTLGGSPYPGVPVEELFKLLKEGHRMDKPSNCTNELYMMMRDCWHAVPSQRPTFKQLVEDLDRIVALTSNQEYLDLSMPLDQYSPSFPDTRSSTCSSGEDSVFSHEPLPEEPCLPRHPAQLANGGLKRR

Row | Sequence | phosphorylation enrichment
65 | FVSIVYSDSGE [TSC2_Y1650_N1651S] | 0.444
66 | PVQAAYQKVVP [HBB_Y131_A136P] | 0.727
67 | VARAVYQAVLS [SMG1_Y549_H546R] | 0.468
68 | VWALTYCDLHK [KCNH2_Y827_R823W] | 0.823
69 | QEIATHRRLLE [KRT14_Y415_Y415H] | 0.529
70 | YQQLFYLLQTN [IQGAP2_Y890] | 2.75
71 | TSSSRYFDEPV [ARFGAP3_Y356_S355R] | 0.597
72 | VERIHYIGQNE [HMOX2_Y140] | 0.555
73 | ESDGAYIHRMQ [CCDC137_Y125] | 0.419
74 | KILAKYSLETS [NAMPT_Y175_L176S] | 0.442
75 | ESKAGYRAPRS [CLDN7_Y195_V197A] | 0.425
76 | GQRDLYSGLNE [CD3E_Y199_Q204E] | 0.555
77 | GGGFGYQKTRK [DDX18_Y643_K647R] | 0.422
78 | SLIDMYSEVLD [OPA1_Y268] | 0.633
79 | ADRAAYLQNLN [MYH1_Y389_K386R] | 0.629
80 | FSNKLHFQLEQ [PDPR_Y109_Y109H_YF] | 0.482

What follows are sequences tested against EPHB2 (UniProt P29323) in the same assay as above.
EPHB2, sequence (P29323 whole entry, looked up): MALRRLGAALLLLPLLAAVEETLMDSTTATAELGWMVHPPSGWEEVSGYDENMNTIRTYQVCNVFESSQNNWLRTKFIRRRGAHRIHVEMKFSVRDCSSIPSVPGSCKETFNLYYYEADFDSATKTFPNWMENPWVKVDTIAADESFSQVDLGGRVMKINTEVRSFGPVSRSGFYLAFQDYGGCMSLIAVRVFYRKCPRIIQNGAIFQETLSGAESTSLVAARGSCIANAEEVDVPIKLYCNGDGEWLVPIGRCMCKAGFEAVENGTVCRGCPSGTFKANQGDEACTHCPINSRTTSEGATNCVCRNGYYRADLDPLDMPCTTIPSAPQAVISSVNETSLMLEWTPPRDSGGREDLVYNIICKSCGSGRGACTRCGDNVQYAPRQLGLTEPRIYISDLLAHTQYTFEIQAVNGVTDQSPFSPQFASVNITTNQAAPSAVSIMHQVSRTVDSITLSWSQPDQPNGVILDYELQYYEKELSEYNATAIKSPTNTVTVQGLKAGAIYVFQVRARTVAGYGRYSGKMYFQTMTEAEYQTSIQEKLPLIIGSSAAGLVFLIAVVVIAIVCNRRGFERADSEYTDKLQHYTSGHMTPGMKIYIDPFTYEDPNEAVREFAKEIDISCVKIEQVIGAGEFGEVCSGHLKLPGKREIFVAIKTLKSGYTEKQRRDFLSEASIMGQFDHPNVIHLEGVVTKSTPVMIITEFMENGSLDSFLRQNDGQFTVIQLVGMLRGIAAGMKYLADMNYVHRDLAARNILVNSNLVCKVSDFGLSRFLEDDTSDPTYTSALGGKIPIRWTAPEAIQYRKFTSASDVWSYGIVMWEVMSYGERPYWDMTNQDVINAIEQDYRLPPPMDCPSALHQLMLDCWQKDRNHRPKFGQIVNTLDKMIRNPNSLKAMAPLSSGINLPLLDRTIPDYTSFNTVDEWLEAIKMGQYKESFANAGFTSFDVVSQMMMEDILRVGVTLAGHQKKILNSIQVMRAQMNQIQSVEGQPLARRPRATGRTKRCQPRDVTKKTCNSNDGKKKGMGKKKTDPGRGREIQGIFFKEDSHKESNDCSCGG

Row | Sequence | phosphorylation enrichment
81 | FVSIVYSDSGE [TSC2_Y1650_N1651S] | 0.582
82 | PVQAAYQKVVP [HBB_Y131_A136P] | 0.631
83 | VARAVYQAVLS [SMG1_Y549_H546R] | 0.567
84 | VWALTYCDLHK [KCNH2_Y827_R823W] | 0.76
85 | QEIATHRRLLE [KRT14_Y415_Y415H] | 0.469
86 | YQQLFYLLQTN [IQGAP2_Y890] | 0.758
87 | TSSSRYFDEPV [ARFGAP3_Y356_S355R] | 0.395
88 | VERIHYIGQNE [HMOX2_Y140] | 0.47
89 | ESDGAYIHRMQ [CCDC137_Y125] | 0.493
90 | KILAKYSLETS [NAMPT_Y175_L176S] | 0.409
91 | ESKAGYRAPRS [CLDN7_Y195_V197A] | 0.415
92 | GQRDLYSGLNE [CD3E_Y199_Q204E] | 1.3
93 | GGGFGYQKTRK [DDX18_Y643_K647R] | 0.302
94 | SLIDMYSEVLD [OPA1_Y268] | 0.683
95 | ADRAAYLQNLN [MYH1_Y389_K386R] | 0.338
96 | FSNKLHFQLEQ [PDPR_Y109_Y109H_YF] | 0.509

The sequences below were run against FGFR3 (UniProt P22607) in the same assay as above.
FGFR3, sequence (P22607 whole entry, looked up): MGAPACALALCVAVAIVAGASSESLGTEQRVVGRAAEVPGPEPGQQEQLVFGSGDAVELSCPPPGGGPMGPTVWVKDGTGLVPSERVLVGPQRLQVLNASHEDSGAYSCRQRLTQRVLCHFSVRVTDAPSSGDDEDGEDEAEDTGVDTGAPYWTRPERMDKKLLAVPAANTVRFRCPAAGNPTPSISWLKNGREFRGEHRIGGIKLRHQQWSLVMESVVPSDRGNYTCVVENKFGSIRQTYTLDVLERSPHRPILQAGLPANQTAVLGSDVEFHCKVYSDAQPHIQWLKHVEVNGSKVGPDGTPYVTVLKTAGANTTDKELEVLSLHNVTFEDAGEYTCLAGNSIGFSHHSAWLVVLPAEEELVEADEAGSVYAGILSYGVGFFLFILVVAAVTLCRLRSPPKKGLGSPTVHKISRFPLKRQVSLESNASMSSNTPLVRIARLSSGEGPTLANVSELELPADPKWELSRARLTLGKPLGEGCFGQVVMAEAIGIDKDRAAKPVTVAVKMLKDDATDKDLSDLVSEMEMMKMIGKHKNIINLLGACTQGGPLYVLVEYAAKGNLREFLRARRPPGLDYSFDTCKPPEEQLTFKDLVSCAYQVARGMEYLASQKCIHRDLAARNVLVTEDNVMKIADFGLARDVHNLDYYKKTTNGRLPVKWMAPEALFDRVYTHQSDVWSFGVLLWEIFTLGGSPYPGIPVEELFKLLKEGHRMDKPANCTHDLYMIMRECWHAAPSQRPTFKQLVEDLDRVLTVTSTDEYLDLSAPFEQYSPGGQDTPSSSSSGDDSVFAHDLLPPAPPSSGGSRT

Row | Sequence | phosphorylation enrichment
97 | FVSIVYSDSGE [TSC2_Y1650_N1651S] | 0.717
98 | PVQAAYQKVVP [HBB_Y131_A136P] | 0.775
99 | VARAVYQAVLS [SMG1_Y549_H546R] | 0.585
100 | VWALTYCDLHK [KCNH2_Y827_R823W] | 0.967
101 | QEIATHRRLLE [KRT14_Y415_Y415H] | 1.09
102 | YQQLFYLLQTN [IQGAP2_Y890] | 2.26
103 | TSSSRYFDEPV [ARFGAP3_Y356_S355R] | 0.688
104 | VERIHYIGQNE [HMOX2_Y140] | 0.381
105 | ESDGAYIHRMQ [CCDC137_Y125] | 0.514
106 | KILAKYSLETS [NAMPT_Y175_L176S] | 0.456
107 | ESKAGYRAPRS [CLDN7_Y195_V197A] | 0.483
108 | GQRDLYSGLNE [CD3E_Y199_Q204E] | 0.653
109 | GGGFGYQKTRK [DDX18_Y643_K647R] | 0.46
110 | SLIDMYSEVLD [OPA1_Y268] | 0.719
111 | ADRAAYLQNLN [MYH1_Y389_K386R] | 0.441
112 | FSNKLHFQLEQ [PDPR_Y109_Y109H_YF] | 0.509

Each sequence was assayed against Fes (UniProt P07332) in the same assay as above.
Fes, sequence (P07332 whole entry, looked up): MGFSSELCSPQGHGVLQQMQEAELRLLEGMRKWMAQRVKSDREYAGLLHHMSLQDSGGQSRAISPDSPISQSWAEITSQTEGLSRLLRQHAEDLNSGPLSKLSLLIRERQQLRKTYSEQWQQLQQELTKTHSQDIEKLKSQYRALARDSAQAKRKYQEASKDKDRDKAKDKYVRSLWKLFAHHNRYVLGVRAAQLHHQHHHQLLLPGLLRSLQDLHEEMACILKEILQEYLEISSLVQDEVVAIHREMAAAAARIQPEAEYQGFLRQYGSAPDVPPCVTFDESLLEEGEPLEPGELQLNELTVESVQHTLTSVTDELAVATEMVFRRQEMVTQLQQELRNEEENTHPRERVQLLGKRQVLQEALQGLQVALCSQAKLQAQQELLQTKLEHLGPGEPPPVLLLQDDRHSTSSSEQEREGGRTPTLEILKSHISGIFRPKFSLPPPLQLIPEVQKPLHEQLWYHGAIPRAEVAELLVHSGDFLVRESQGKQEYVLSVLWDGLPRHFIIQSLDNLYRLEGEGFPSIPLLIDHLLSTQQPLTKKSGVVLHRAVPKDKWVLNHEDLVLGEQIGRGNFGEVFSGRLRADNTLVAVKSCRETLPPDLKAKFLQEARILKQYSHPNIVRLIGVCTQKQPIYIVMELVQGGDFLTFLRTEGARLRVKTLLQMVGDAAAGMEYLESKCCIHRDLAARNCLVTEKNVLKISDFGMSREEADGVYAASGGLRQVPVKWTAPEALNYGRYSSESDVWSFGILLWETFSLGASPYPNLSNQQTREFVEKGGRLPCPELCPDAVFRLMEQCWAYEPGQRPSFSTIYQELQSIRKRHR

Row | Sequence | phosphorylation enrichment
113 | FVSIVYSDSGE [TSC2_Y1650_N1651S] | 1.16
114 | PVQAAYQKVVP [HBB_Y131_A136P] | 0.64
115 | VARAVYQAVLS [SMG1_Y549_H546R] | 0.97
116 | VWALTYCDLHK [KCNH2_Y827_R823W] | 1.32
117 | QEIATHRRLLE [KRT14_Y415_Y415H] | 1.06
118 | YQQLFYLLQTN [IQGAP2_Y890] | 1.35
119 | TSSSRYFDEPV [ARFGAP3_Y356_S355R] | 0.839
120 | VERIHYIGQNE [HMOX2_Y140] | 0.638
121 | ESDGAYIHRMQ [CCDC137_Y125] | 0.873
122 | KILAKYSLETS [NAMPT_Y175_L176S] | 0.58
123 | ESKAGYRAPRS [CLDN7_Y195_V197A] | 0.519
124 | GQRDLYSGLNE [CD3E_Y199_Q204E] | 0.89
125 | GGGFGYQKTRK [DDX18_Y643_K647R] | 0.613
126 | SLIDMYSEVLD [OPA1_Y268] | 1.12
127 | ADRAAYLQNLN [MYH1_Y389_K386R] | 0.699
128 | FSNKLHFQLEQ [PDPR_Y109_Y109H_YF] | 1.18
